From patent US20070128661A1 (Harvard, published 2007)

T1: Flag-tagged T-bet (wild type), immunoprecipitated from 293T cells (UniProt Q9JKD8)
T1 sequence: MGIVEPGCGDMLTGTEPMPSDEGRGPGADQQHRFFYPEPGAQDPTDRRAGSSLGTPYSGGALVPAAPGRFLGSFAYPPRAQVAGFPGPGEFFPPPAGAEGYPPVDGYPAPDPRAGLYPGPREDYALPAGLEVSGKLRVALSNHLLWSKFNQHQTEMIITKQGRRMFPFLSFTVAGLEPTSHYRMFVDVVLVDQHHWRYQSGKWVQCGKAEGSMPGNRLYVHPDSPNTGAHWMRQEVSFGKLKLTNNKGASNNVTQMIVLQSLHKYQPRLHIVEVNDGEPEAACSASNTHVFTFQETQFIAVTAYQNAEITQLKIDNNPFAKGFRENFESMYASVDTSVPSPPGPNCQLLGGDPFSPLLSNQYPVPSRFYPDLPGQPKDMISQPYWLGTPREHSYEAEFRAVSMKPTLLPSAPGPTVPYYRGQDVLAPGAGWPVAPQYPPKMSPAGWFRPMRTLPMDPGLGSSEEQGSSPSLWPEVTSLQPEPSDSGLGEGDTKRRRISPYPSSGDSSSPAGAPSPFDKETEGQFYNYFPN

T2: Flag-tagged T-bet S508A mutant, immunoprecipitated from 293T cells (UniProt Q9JKD8)
T2 sequence: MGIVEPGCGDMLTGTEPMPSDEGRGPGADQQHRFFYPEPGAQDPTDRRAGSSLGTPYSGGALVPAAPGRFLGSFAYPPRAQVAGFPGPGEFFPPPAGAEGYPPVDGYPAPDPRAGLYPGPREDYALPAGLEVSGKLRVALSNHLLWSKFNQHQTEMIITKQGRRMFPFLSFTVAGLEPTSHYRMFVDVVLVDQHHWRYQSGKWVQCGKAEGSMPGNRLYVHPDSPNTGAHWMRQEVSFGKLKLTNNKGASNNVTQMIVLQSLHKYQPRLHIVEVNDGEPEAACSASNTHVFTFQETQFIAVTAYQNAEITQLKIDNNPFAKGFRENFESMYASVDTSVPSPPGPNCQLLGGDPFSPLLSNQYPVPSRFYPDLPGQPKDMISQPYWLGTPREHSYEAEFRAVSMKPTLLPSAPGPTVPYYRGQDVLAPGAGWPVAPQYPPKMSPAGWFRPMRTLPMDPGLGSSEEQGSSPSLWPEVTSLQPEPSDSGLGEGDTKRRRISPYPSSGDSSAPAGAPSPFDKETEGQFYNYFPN

T3: Flag-tagged T-bet S498A control mutant, immunoprecipitated from 293T cells (UniProt Q9JKD8)
T3 sequence: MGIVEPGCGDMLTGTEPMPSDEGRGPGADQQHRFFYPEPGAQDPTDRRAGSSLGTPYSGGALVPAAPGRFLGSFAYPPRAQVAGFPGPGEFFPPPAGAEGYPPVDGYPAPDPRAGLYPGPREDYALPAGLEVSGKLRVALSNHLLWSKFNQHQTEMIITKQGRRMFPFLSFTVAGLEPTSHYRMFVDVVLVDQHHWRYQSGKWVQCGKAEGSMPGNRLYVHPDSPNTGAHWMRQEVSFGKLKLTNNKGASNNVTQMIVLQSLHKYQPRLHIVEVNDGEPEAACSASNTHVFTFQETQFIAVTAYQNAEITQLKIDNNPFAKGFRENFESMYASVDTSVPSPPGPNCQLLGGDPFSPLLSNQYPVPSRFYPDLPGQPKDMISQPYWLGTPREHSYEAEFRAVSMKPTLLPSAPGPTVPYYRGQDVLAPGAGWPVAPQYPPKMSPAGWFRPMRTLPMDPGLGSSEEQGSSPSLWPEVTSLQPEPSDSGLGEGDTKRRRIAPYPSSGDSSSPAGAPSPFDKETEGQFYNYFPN


Experiments:
RelA (NF-kB p65) = conditions: ChIP real-time PCR; binding increase in T-bet-/- Th1 cells versus wt
[1] = molecular target: T1, Flag-tagged T-bet (wild type), immunoprecipitated from 293T cells
[2] = molecular target: T2, Flag-tagged T-bet S508A mutant, immunoprecipitated from 293T cells
[3] = molecular target: T3, Flag-tagged T-bet S498A control mutant, immunoprecipitated from 293T cells
[4] = molecular target: endogenous RelA in mouse Th1 cells (mouse, UniProt Q04207 1-549); assay: cell-based or functional assay
Sequence of endogenous RelA in mouse Th1 cells (Q04207 whole entry): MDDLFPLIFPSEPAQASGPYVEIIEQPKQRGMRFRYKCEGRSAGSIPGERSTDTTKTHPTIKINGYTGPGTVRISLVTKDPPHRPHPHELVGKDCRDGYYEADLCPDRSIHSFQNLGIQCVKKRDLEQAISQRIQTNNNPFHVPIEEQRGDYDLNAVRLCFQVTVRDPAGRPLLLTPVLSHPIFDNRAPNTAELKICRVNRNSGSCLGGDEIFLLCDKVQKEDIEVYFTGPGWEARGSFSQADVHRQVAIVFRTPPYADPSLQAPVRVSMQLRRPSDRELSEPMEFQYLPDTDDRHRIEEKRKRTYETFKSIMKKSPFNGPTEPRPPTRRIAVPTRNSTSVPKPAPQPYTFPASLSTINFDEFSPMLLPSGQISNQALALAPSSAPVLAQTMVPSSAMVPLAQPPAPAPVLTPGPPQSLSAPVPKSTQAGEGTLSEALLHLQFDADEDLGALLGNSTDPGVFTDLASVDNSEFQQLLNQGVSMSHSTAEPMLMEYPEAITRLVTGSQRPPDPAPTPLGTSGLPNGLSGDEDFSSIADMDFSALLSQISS

Molecule	in vitro phosphorylation of T-bet (γ-[32P]ATP, autoradiography) [1]	in vitro phosphorylation of T-bet (γ-[32P]ATP, autoradiography) [2]	in vitro phosphorylation of T-bet (γ-[32P]ATP, autoradiography) [3]	other results
IL-2 promoter chromatin (ChIP amplicon)				binding signal (RelA (NF-kB p65)): 4.5 fold
PKA (recombinant)	T-bet was also phosphorylated by PKA but with 1000-fold lesser efficiency than CKI	PKA-induced phosphorylation was not different among the wt, S508A and S498A T-bet proteins	PKA-induced phosphorylation was not different among the wt, S508A and S498A T-bet proteins	
active ERK (recombinant)	CKI, but not active ERK, phosphorylated T-bet protein in vitro			
casein kinase I (recombinant)	CKI, but not active ERK, phosphorylated T-bet protein in vitro	CKI-mediated phosphorylation of the S508A mutant, but not the S498A control mutant, was dramatically reduced compared to wt	CKI-mediated phosphorylation of the S508A mutant, but not the S498A control mutant, was dramatically reduced compared to wt	
glycogen synthase kinase-3 (recombinant)				in vitro phosphorylation of T-bet by GSK-3 after prephosphorylation with CKI (γ-[32P]ATP) [1]: Hyperphosphorylation of T-bet by GSK-3 was apparent; in vitro phosphorylation of T-bet by GSK-3 after prephosphorylation with CKI (γ-[32P]ATP) [2]: GSK-3-mediated phosphorylation was markedly decreased in the S508A mutant; in vitro phosphorylation of T-bet by GSK-3 after prephosphorylation with CKI (γ-[32P]ATP) [3]: GSK-3 induced wt levels of phosphorylation in the S498A mutant
endogenous T-bet in mouse Th1 cells (other, UniProt Q9JKD8 1-530, looked up, phosphoserine at S508 found by mass spectrometry in primary Th1 cells) MGIVEPGCGDMLTGTEPMPSDEGRGPGADQQHRFFYPEPGAQDPTDRRAGSSLGTPYSGGALVPAAPGRFLGSFAYPPRAQVAGFPGPGEFFPPPAGAEGYPPVDGYPAPDPRAGLYPGPREDYALPAGLEVSGKLRVALSNHLLWSKFNQHQTEMIITKQGRRMFPFLSFTVAGLEPTSHYRMFVDVVLVDQHHWRYQSGKWVQCGKAEGSMPGNRLYVHPDSPNTGAHWMRQEVSFGKLKLTNNKGASNNVTQMIVLQSLHKYQPRLHIVEVNDGEPEAACSASNTHVFTFQETQFIAVTAYQNAEITQLKIDNNPFAKGFRENFESMYASVDTSVPSPPGPNCQLLGGDPFSPLLSNQYPVPSRFYPDLPGQPKDMISQPYWLGTPREHSYEAEFRAVSMKPTLLPSAPGPTVPYYRGQDVLAPGAGWPVAPQYPPKMSPAGWFRPMRTLPMDPGLGSSEEQGSSPSLWPEVTSLQPEPSDSGLGEGDTKRRRISPYPSSGDSSSPAGAPSPFDKETEGQFYNYFPN				IL-2 promoter binding of RelA by ChIP with real-time PCR, T-bet-/- versus wt Th1 cells [4]: 4.5 fold
